This is an account of results in PMC8044140 (Communications Biology, 2021).

The target of data set [1] is T1, PefR (porphyrin-regulated efflux regulator) (Streptococcus agalactiae, UniProt R4Z9I5).
T1 construct: gene AX245_08385; recombinant PefR, C-terminal His tag removed with HRV3C protease; homodimer, two hemes per dimer
T1 sequence (R4Z9I5 1-146): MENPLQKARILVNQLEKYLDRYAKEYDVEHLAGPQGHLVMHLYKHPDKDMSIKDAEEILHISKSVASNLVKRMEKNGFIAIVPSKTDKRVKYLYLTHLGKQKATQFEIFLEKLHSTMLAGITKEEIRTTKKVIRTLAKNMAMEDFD
The data set is described as follows: biochemical. The format is binding.

Data set [2] addresses PefR (porphyrin-regulated efflux regulator) from Streptococcus agalactiae, non-His-tagged (Streptococcus agalactiae). Description: SEC; gel filtration of purified apo-PefR (heme-free); single peak, estimated ~35 kDa against ca. 17 kDa for the monomer.
For data set [3] the target is unchanged. Description: SEC; gel filtration of holo-PefR (heme-bound).
In data set [4] the target is T2, PefR (holo-PefR, ferrous heme-bound) (Streptococcus agalactiae, UniProt R4Z9I5).
T2 construct: gene AX245_08385; recombinant holo-PefR, homodimer
T2 sequence (R4Z9I5 1-146): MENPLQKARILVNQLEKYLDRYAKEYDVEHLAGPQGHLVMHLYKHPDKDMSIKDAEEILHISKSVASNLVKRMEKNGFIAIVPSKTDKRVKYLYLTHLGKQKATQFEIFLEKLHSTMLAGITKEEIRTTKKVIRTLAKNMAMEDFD
The class given is binding.

In data set [5] the target is T3, PefR (Streptococcus agalactiae, UniProt Q8E4J9 1-146).
T3 sequence: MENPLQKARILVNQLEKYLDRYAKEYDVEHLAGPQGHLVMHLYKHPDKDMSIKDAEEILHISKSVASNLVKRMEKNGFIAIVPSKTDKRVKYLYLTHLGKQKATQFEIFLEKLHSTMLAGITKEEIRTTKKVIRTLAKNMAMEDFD
Description: EMSA; apo (heme-free); EMSA: 20 mM Tris-HCl pH 7.4, 50 mM KCl, 5% glycerol, 0.2 M MgCl2, room temperature; FP: 40 mM HEPES/Na pH 7.4, 500 mM NaCl, 10% glycerol, 10 nM DNA, room temperature. As to conditions: protein: recombinant; tags: C-terminal HRV3C site-6xHis, His tag removed by HRV3C protease (site remnant remains); chain copies: 2; label: 5'-FAM on antisense strand; blunt.

In another data set the target is PefR K75A (Streptococcus agalactiae, UniProt Q8E4J9 1-146, K75A). The data set is described as follows: EMSA; apo; 1:1 dimer:DNA, 5 uM; similar to WT; EMSA: 20 mM Tris-HCl pH 7.4, 50 mM KCl, 5% glycerol, 0.2 M MgCl2, room temperature; FP: 40 mM HEPES/Na pH 7.4, 500 mM NaCl, 10% glycerol, 10 nM DNA, room temperature. The note with it: protein: recombinant; tags: C-terminal HRV3C site-6xHis, removed; chain copies: 2; label: 5'-FAM on antisense strand; blunt.

In another data set the target is PefR K53A (Streptococcus agalactiae, UniProt Q8E4J9 1-146, K53A). The description is as above. As to conditions: protein: recombinant; tags: C-terminal HRV3C site-6xHis, removed; chain copies: 2; label: 5'-FAM on antisense strand; blunt.
A further data set deals with PefR S62A (Streptococcus agalactiae, UniProt Q8E4J9 1-146, S62A). Described as above. The note with it: protein: recombinant; tags: C-terminal HRV3C site-6xHis, removed; chain copies: 2; label: 5'-FAM on antisense strand; blunt.
The next data set concerns the target PefR S67A (Streptococcus agalactiae, UniProt Q8E4J9 1-146, S67A). The description is as above. The note with it: protein: recombinant; tags: C-terminal HRV3C site-6xHis, removed; chain copies: 2; label: 5'-FAM on antisense strand; blunt.
The target in a further data set is PefR K63A (Streptococcus agalactiae, UniProt Q8E4J9 1-146, K63A). The data set is described as above. As to conditions: protein: recombinant; tags: C-terminal HRV3C site-6xHis, removed; chain copies: 2; label: 5'-FAM on antisense strand; blunt.
In a further data set the target is PefR R89A (Streptococcus agalactiae, UniProt Q8E4J9 1-146, R89A). The data set is described as follows: EMSA; apo; 1:1 dimer:DNA, 5 uM; EMSA: 20 mM Tris-HCl pH 7.4, 50 mM KCl, 5% glycerol, 0.2 M MgCl2, room temperature; FP: 40 mM HEPES/Na pH 7.4, 500 mM NaCl, 10% glycerol, 10 nM DNA, room temperature. As to conditions: protein: recombinant; tags: C-terminal HRV3C site-6xHis, removed; chain copies: 2; label: 5'-FAM on antisense strand; blunt.

Data set [6] addresses T3, PefR. Description: fluorescence polarization; apo (heme-free); 1:1 dimer:dsDNA; 500 mM NaCl; EMSA: 20 mM Tris-HCl pH 7.4, 50 mM KCl, 5% glycerol, 0.2 M MgCl2, room temperature; FP: 40 mM HEPES/Na pH 7.4, 500 mM NaCl, 10% glycerol, 10 nM DNA, room temperature. The note with it: protein: recombinant; tags: C-terminal HRV3C site-6xHis, His tag removed by HRV3C protease (site remnant remains); chain copies: 2; label: 5'-FAM on antisense strand; blunt.

A further data set addresses PefR H114A (Streptococcus agalactiae, UniProt Q8E4J9 1-146, H114A). The data set is described as follows: fluorescence polarization; apo (heme-free); 1:1 dimer:dsDNA; EMSA: 20 mM Tris-HCl pH 7.4, 50 mM KCl, 5% glycerol, 0.2 M MgCl2, room temperature; FP: 40 mM HEPES/Na pH 7.4, 500 mM NaCl, 10% glycerol, 10 nM DNA, room temperature. As to conditions: protein: recombinant; tags: C-terminal HRV3C site-6xHis, removed; chain copies: 2; label: 5'-FAM on antisense strand; blunt.

Data set [7] deals with T3, PefR. Description: X-ray crystallography; apo (heme-free), 2.5 A; EMSA: 20 mM Tris-HCl pH 7.4, 50 mM KCl, 5% glycerol, 0.2 M MgCl2, room temperature; FP: 40 mM HEPES/Na pH 7.4, 500 mM NaCl, 10% glycerol, 10 nM DNA, room temperature. As to conditions: protein: recombinant; tags: C-terminal HRV3C site-6xHis, His tag removed by HRV3C protease (site remnant remains); chain copies: 2; blunt.

As for `C=CC1=C(C)C2=Cc3c(C=C)c(C)c4[n]3[Fe][n]3c(c(C)c(CCC(=O)O)c3=CC3=NC(=C4)C(C)=C3CCC(=O)O)=CC1=N2` [heme], the Kd in data set [1] worked out at 610 nM.

On to “PefR (porphyrin-regulated efflux regulator) from Streptococcus agalactiae, non-His-tagged (natural protein)”, for which the stoichiometry N in data set [2] and in [3] was 2 in each case.

Consider `[C-]#[O+]` [carbon monoxide], for which the Kd in data set [4] is 0.11 and 0.033 μM.

B1: pefRCD operator 28 bp (EMSA) (dsDNA)
DNA 1: TAAAATAGTTCTCACGATAACTATTAAA
DNA 2: TTTAATAGTTATCGTGAGAACTATTTTA
As to B1, the binding result in the data set with PefR [5] is “binds”.

B2: target DNA (operon not stated) (dsDNA)
DNA 1: TAAAATAGTTCTCACGATAACTATTAAA
DNA 2: TTTAATAGTTATCGTGAGAACTATTTTA
Turning to B2, the binding result with PefR K75A was “binds”; with PefR K53A it was “binds”; with PefR S62A, “binds”; in the data set with PefR S67A it was “binds”; with PefR K63A, “binds”; in the data set with PefR R89A it was “no binding”.

B3: pefAB operator 38 bp (dsDNA)
DNA 1: GCTATTATAAAATAGTTCTCACGATAACTAAAATAATG
DNA 2: CATTATTTTAGTTATCGTGAGAACTATTTTATAATAGC
For B3, the results for the Kd with PefR [6] and with PefR H114A were 40 nM and about 25 nM, respectively.

B4: pefRCD operator for crystal (dsDNA)
DNA 1: TAAAATAGTTCTCACGATAACTATTAAAT
DNA 2: ATTTAATAGTTATCGTGAGAACTATTTTA
B4: the binding result with PefR [7] is on record as “binds”.

B5: nontarget DNA (dsDNA)
DNA 1: GTTTTAAAACGACCTCTGTAGCGGTCGTTAAAGG
DNA 2: CCTTTAACGACCGCTACAGAGGTCGTTTTAAAAC
For the molecule B5, the binding result in the data set with PefR [5] was “no binding”.
